Measured values published in publication PMC4829898.

Target: recombinant soluble trimeric hemagglutinin (triHA) (influenza A virus A/Belgium/2009 (H1N1, 2009 pandemic) | Saccharomyces cerevisiae)
Assay: SEC

recombinant soluble trimeric hemagglutinin (triHA)
stoichiometry N: 3
